B1: mannan-binding lectin associated serine protease-2 (MASP-2) (protein)
chain: TPLGPKWPEPVFGRLASPGFPGEYANDQERRWTLTAPPGYRLRLYFTHFDLELSHLCEYDFVKLSSGAKVLATLCGQESTDTERAPGKDTFYSLGSSLDITFRSDYSNEKPFTGFEAFYAAEDIDECQVAPGEAPTCDHHCHNHLGGFYCSCRAGYVLHRNKRTCSALCSGQVFTQRSGELSSPEYPRPYPKLSSCTYSISLEEGFSVILDFVESFDVETHPETLCPYDFLKIQTDREEHGPFCGKTLPHRIETKSNTVTITFVTDESGDHTGWKIHYTSTAHACPYPMAPPNGHVSPVQAKYILKDSFSIFCETGYELLQGHLPLKSFTAVCQKDGSWDRPMPACSIVDCGPPDDLPSGRVEYITGPGVTTYKAVIQYSCEETFYTMKVNDGKYVCEADGFWTSSKGEKSLPVCEPVCGLSARTTGGRIYGGQKAKPGDFPWQVLILGGTTAAGALLYDNWVLTAAHAVYEQKHDASALDIRMGTLKRLSPHYTQAWSEAVFIHEGYTHDAGFDNDIALIKLNNKVVINSNITPICLPRKEAESFMRTDDIGTASGWGLTQRGFLARNLMYVDIPIVDHQKCTAAYEKPPYPRGSVTANMLCAGLESGGKDSCRGDSGGALVFLDSETERWFVGGIVSWGSMNCGEAGQYGVYTKVINYIPWIENIISDF
B2: MASP-1 (MBP-associated serine protease) (protein)
chain: HTVELNNMFGQIQSPGYPDSYPSDSEVTWNITVPDGFRIKLYFMHFNLESSYLCEYDYVKVETEDQVLATFCGRETTDTEQTPGQEVVLSPGSFMSITFRSDFSNEERFTGFDAHYMAVDVDECKEREDEELSCDHYCHNYIGGYYCSCRFGYILHTDNRTCRVECSDNLFTQRTGVITSPDFPNPYPKSSECLYTIELEEGFMVNLQFEDIFDIEDHPEVPCPYDYIKIKVGPKVLGPFCGEKAPEPISTQSHSVLILFHSDNSGENRGWRLSYRAAGNECPELQPPVHGKIEPSQAKYFFKDQVLVSCDTGYKVLKDNVEMDTFQIECLKDGTWSNKIPTCKIVDCRAPGELEHGLITFSTRNNLTTYKSEIKYSCQEPYYKMLNNNTGIYTCSAQGVWMNKVLGRSLPTCLPVCGLPKFSRKLMARIFNGRPAQKGTTPWIAMLSHLNGQPFCGGSLLGSSWIVTAAHCLHQSLDPEDPTLRDSDLLSPSDFKIILGKHWRLRSDENEQHLGVKHTTLHPQYDPNTFENDVALVELLESPVLNAFVMPICLPEGPQQEGAMVIVSGWGKQFLQRFPETLMEIEIPIVDHSTCQKAYAPLKKKVTRDMICAGEKEGGKDACAGDSGGPMVTLNRERGQWYLVGTVSWGDDCGKKDRYGVYSYIHHNKDWIQRVTGVRN
B3: C1s (protein)
chain: EPTMYGEILSPNYPQAYPSEVEKSWDIEVPEGYGIHLYFTHLDIELSENCAYDSVQIISGDTEEGRLCGQRSSNNPHSPIVEEFQVPYNKLQVIFKSDFSNEERFTGFAAYYVATDINECTDFVDVPCSHFCNNFIGGYFCSCPPEYFLHDDMKNCGVNCSGDVFTALIGEIASPNYPKPYPENSRCEYQIRLEKGFQVVVTLRREDFDVEAADSAGNCLDSLVFVAGDRQFGPYCGHGFPGPLNIETKSNALDIIFQTDLTGQKKGWKLRYHGDPMPCPKEDTPNSVWEPAKAKYVFRDVVQITCLDGFEVVEGRVGATSFYSTCQSNGKWSNSKLKCQPVDCGIPESIENGKVEDPESTLFGSVIRYTCEEPYYYMENGGGGEYHCAGNGSWVNEVLGPELPKCVPVCGVPREPFEEKQRIIGGSDADIKNFPWQVFFDNPWAGGALINEYWVLTAAHVVEGNREPTMYVGSTSVQTSRLAKSKMLTPEHVFIHPGWKLLEVPEGRTNFDNDIALVRLKDPVKMGPTVSPICLPGTSSDYNLMDGDLGLISGWGRTEKRDRAVRLKAARLPVAPLRKCKEVKVEKPTADAEAYVFTPNMICAGGEKGMDSCKGDSGGAFAVQDPNDKTKFYAAGLVSWGPQCGTYGLYTRVKNYVDWIMKTMQENSTPRED

Biological target: T1, complement factor C4, P0C0L4
T1 chain: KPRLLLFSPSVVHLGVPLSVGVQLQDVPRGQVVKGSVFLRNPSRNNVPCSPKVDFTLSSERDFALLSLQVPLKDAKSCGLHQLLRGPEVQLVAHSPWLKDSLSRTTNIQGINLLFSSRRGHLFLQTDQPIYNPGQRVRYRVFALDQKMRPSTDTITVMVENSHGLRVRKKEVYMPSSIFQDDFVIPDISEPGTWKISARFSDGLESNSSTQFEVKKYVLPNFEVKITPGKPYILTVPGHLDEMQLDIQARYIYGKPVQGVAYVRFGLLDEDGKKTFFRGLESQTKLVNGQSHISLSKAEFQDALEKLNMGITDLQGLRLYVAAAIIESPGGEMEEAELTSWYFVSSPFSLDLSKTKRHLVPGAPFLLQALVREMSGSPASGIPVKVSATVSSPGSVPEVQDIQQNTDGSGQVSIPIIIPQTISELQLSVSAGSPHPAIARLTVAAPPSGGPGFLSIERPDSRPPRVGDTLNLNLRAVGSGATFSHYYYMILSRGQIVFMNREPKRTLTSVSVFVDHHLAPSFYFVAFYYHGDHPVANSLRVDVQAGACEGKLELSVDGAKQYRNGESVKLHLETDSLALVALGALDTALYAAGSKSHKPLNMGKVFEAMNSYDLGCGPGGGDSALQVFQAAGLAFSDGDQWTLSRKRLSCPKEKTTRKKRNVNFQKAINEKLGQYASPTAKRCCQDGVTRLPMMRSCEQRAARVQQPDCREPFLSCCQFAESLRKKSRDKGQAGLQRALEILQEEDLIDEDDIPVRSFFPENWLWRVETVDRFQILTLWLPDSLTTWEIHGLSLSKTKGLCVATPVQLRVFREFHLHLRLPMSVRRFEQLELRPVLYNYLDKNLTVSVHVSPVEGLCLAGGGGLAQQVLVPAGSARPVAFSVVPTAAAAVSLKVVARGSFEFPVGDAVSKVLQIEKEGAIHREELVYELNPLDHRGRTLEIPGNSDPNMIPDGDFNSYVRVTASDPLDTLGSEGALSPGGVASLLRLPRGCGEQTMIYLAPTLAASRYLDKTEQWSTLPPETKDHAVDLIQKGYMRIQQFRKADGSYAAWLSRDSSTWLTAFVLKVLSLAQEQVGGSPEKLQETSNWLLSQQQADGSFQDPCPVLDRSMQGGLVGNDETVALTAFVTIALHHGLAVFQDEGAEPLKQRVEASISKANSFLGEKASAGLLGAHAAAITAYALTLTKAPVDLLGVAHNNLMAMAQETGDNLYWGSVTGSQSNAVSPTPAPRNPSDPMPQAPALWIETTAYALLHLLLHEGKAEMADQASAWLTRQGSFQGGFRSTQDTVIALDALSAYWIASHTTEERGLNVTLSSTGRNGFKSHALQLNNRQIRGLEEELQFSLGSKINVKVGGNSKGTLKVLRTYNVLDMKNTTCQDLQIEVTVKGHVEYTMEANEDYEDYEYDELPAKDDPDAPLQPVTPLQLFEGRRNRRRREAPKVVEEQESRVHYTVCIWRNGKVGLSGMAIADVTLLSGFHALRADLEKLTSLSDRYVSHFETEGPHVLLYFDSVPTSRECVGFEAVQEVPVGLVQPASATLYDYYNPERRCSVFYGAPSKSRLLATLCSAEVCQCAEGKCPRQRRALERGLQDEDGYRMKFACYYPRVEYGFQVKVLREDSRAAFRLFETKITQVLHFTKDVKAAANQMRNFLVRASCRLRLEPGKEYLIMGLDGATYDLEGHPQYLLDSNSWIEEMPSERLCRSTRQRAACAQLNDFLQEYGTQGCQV

Row | Protein | C4 deposition on a Western blot incubated with human serum (C4 converting activity)
1 | B1 | C4 was deposited at a position corresponding to the MASP-2 band
2 | B2 | no C4 deposition was observed at positions corresponding to MASP-1
3 | B3 | C4 deposition, which could be inhibited by enzyme inhibitors, was observed at a position corresponding to C1r and C1s, which are not separated by the technique employed
